According to article PMC8001920, “Selecting Subpopulations of High-Quality Protein Conformers among Conformational Mixtures of Recombinant Bovine MMP-9 Solubilized from Inclusion Bodies” (International Journal of Molecular Sciences, 2021):

Molecular target: the molecule itself
Experiment: SDS-PAGE and Western blot; IMAC peaks of solubilized MMP-9 from L. lactis, mixed 1:1 with Laemmli buffer, boiled at 90 °C for 10 min, run with 0.1% SDS, detected with anti-His-tag monoclonal antibody; bands of high molecular weight

B1: recombinant bovine MMP-9 fragment (Phe107-Pro449), C-terminally His-tagged, produced in L. lactis (domain or fragment)
chain: not shown
notes: matrix metalloproteinase 9 (MMP-9), bovine, fragment Phe107-Pro449 of NCBI NM_174744.2; The same fragment was also made in Clearcoli BL21(DE3) (pETDuet); no result on self-association is told for that material; also called matrix metalloproteinase 9; solubilized MMP-9; not shown: 6His-tag, C-terminal, kept
  binding result: binds
